Measurements from US20220064263A1 (published 2022).
Where a chain is given by its changes, count along the chain named. One block for each binder: values may come before it.

How the values were obtained:
[1] = target: T1, human C1q (human, UniProt P02745 23-245; P02746 28-253; P02747 29-245); experiment: biosensor; fusion captured on IL4-bound tips, human C1q at 250 µg/mL
T1 construct: Bought protein complex; the three subunit chains come from general knowledge; also called C1q complex
Protocol: (§1) A biosensor binding analysis was performed to determine the binding affinity of C1q to IL13R(ECD)-IL4R(ECD)-wild type canine IgG-B Fc (SEQ ID NO: 271) compared to IL13R(ECD)-IL4R(ECD)-variant canine IgG-B Fc (SEQ ID NO: 202). Briefly canine IL4 was biotinylated and captured to streptavidin sensor tips. Either IL13R(ECD)-IL4R(ECD)-wild type canine IgG-B Fc (25 μg/mL) or IL13R(ECD)-IL4R(ECD)-variant canine IgG-B Fc (25 μg/mL) was complexed to the IL4-bound biosensors. Subsequently, the complex was used to bind human C1q at 250 μg/mL (Catalog No. 204876-1MG; Sigma Aldrich). The ability of human C1q to bind either complex was measured. Reduced binding between human C1q and IL13R(ECD)-IL4R(ECD)-variant canine IgG-B Fc was observed when compared to IL13R(ECD)-IL4R(ECD)-wild type canine IgG-B Fc.

[2] = target: T2, canine IL4 (canine, UniProt O77762 25-132, biotinylated (site not stated)); experiment: biosensor; biotinylated canine IL4 on streptavidin tips, fusion at 25 µg/mL
T2 construct: Biotinylated and captured on streptavidin sensor tips
T2 sequence (looked up): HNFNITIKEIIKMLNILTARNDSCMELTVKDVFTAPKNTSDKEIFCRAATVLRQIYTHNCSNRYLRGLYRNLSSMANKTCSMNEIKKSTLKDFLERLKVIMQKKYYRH
Protocol: as §1

T1 sequence (P02745 23-245 limits assumed, chain 1 of 3): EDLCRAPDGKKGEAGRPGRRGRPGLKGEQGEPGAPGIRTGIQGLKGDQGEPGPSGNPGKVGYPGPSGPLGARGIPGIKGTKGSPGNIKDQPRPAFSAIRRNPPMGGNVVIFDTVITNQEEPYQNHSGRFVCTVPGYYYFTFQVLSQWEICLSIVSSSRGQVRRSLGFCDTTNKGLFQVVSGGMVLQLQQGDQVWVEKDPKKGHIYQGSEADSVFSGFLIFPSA
T1 sequence (P02746 28-253 limits assumed, chain 2 of 3): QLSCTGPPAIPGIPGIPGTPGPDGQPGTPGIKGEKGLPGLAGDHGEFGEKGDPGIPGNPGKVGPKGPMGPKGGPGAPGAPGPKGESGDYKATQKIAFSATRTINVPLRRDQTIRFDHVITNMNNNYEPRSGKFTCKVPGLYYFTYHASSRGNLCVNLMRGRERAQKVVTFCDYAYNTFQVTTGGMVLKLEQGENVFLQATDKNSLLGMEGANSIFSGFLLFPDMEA
T1 sequence (P02747 29-245 limits assumed, chain 3 of 3): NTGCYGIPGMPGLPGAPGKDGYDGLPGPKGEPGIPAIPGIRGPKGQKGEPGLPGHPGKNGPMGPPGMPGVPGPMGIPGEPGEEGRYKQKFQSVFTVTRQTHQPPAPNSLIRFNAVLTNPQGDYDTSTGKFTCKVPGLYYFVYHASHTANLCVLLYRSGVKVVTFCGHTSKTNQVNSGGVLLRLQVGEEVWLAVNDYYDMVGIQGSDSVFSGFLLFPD

- binding result [1]: binds
- binding result [2]: binds
B1: IL13R(ECD)-IL4R(ECD)-wild type canine IgG-B Fc (Fc fusion)
chain: TETQPPVTNLSVSVENLCTVIWTWDPPEGASPNCTLRYFSHFDNKQDKKIAPETHRSKEVPLNERICLQVGSQCSTNESDNPSILVEKCTPPPEGDPESAVTELQCVWHNLSYMKCTWLPGRNTSPDTNYTLYYWHSSLGKILQCEDIYREGQHIGCSFALTNLKDSSFEQHSVQIVVKDNAGKIRPSFNIVPLTSHVKPDPPHIKRLFFQNGNLYVQWKNPQNFYSRCLSYQVEVNNSQTETNDIFYVEEAKCQNSEFEGNLEGTICFMVPGVLPDTLNTVRIRVRTNKLCYEDDKLWSNWSQAMSIGENTDPTGGGSGSGSVKVLHEPSCFSDYISTSVCQWKMDHPTNCSAELRLSYQLDFMGSENHTCVPENREDSVCVCSMPIDDAVEADVYQLDLWAGQQLLWSGSFQPSKHVKPRTPGNLTVHPNISHTWLLMWTNPYPTENHLHSELTYMVNVSNDNDPEDFKVYNVTYMGPTLRLAASTLKSGASYSARVRAWAQTYNSTWSDWSPSTTWLNYYEPKRENGRVPRPPDCPKCPAPEMLGGPSVFIFPPKPKDTLLIARTPEVTCVVVDLDPEDPEVQISWFVDGKQMQTAKTQPREEQFNGTYRVVSVLPIGHQDWLKGKQFTCKVNNKALPSPIERTISKARGQAHQPSVYVLPPSREELSKNTVSLTCLIKDFFPPDIDVEWQSNGQQEPESKYRTTPPQLDEDGSYFLYSKLSVDKSRWQRGDTFICAVMHEALHNHYTQESLSHSPGK
notes: also called fusion protein comprising wild-type canine IgG-B Fc

- binding result [1]: binds
- binding result [2]: binds
B2: IL13R(ECD)-IL4R(ECD)-variant canine IgG-B Fc (Fc fusion)
chain: B1 chain with K634R
notes: also called fusion protein comprising variant canine IgG-B Fc K(93)R
